Data taken from article PMC8163507, “PHAROH lncRNA regulates Myc translation in hepatocellular carcinoma via sequestering TIAR”.

T1: TIAR (nucleolysin TIAR, TIAL-1) (human, UniProt Q01085 1-375)
T1 sequence: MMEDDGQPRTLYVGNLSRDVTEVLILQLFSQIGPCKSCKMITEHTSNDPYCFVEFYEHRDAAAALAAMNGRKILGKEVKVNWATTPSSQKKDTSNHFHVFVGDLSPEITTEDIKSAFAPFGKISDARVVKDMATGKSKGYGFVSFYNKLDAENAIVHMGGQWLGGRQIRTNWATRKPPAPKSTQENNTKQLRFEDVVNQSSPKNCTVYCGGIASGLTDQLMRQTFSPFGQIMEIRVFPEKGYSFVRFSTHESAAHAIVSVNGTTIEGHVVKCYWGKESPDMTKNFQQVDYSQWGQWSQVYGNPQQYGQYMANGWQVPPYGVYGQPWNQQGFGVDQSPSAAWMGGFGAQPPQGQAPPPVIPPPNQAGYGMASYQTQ


Tests used:
[1] = biological target: T1, TIAR (nucleolysin TIAR, TIAL-1); assay: EMSA; densitometry of free probe; sequential shifts, prefers two and four copies; EMSA: ~2 fmol probe in 20 ul, 10 mM HEPES pH 7.3, 20 mM KCl, 1 mM MgCl2 (printed Mg2Cl2), 1 mM DTT, 30 ng/ul BSA, 0.01% NP-40, 5% glycerol, room temperature 30; conditions: protein: commercial; hairpin (predicted)
[2] = biological target: T1, TIAR (nucleolysin TIAR, TIAL-1); assay: EMSA; prefers one copy; three only at saturating TIAR; EMSA: ~2 fmol probe in 20 ul, 10 mM HEPES pH 7.3, 20 mM KCl, 1 mM MgCl2 (printed Mg2Cl2), 1 mM DTT, 30 ng/ul BSA, 0.01% NP-40, 5% glycerol, room temperature 30; conditions: protein: commercial; label: 3' biotin; single strand; sites predicted largely in loop

Binder	Kd [1] [nM]	binding result [2]
PHAROH 71-nt hairpin (WT) (structured_RNA) RNA: GAGAGGAUGCCACUGUUUUGAACUAUUUUGAAGGCACAGCCACCAGAGCUUUAGGGACAGGGUAUUUUAUC	~2	–
Myc 3' UTR 53-nt fragment (ssRNA) RNA: GCUUCCCAUCUUUUUUCUUUUUCCUUUUAACAGAUUUGUAUUUAAUUGUUUUU	–	binds
